Results on nine molecules are retold here after article PMC12595441, “Glycosaminoglycans activate peptidylarginine deiminase 4 by enhancing calcium affinity” (Proceedings of the National Academy of Sciences of the …, 2025).

What is called koff is the rate constant with which the complex falls apart. By stoichiometry N is commonly meant the number of molecules, sites or subunits per partner or assembly.

For data set [1], the target named is heparin. Kind of data set: SPR. To be noted: immobilized heparin.
Data set [2] has as its target heparin. Kind of data set: heparin activation assay with BAEE substrate, Hill equation fit (apparent KD). To be noted: 0.1 mM Ca2+.
Data set [3] deals with heparin. Kind of data set: heparin column chromatography (Poros heparin), salt gradient. The following applies: gradient of 2 M NaCl; parent: est. 31 min; read off a plot.
Data set [4] concerns the molecule itself. Kind of data set: SEC; analytical SEC in the presence of 5 µM heparin, Superdex 200 Increase 3.2/300, protein at 0.15 µM, 50 mM Tris pH 7.5, 300 mM NaCl, 0.1 mM CaCl2, 0.05% Tween20, 0.25 mM DTT; tryptophan fluorescence. A general note: SEC sorts molecules by how far they enter the pores of the column.
Data set [5] concerns the molecule itself. Kind of data set: SEC; analytical SEC without heparin, Superdex 200 Increase 3.2/300, protein at 0.15 µM, 50 mM Tris pH 7.5, 300 mM NaCl, 0.1 mM CaCl2, 0.05% Tween20, 0.25 mM DTT; tryptophan fluorescence; compared with HMW calibration standards.

Changes are numbered by the printed parent chain. Numbers in names are those of the source.

Take “peptidylarginine deiminase 4 (PAD4), recombinant human, wild type (from UniProt Q9UM07) K59S; K60S; K61S; K81S; K91S”: in the data set with heparin [1], the Kd was 11.8 nM, the koff is 6.7 × 10^-4 and the kon (× 10^4 M^-1s^-1) is 5.6. Moreover, in the data set with heparin [2], the Kd worked out at 6.1 nM.
The matching figures for “peptidylarginine deiminase 4 (PAD4), recombinant human, wild type (from UniProt Q9UM07) K126S; K128S; R131S; K134S; R137S”: 13.5 nM, 3.9 × 10^-4, 3.1 and 7.5 nM.
Regarding “peptidylarginine deiminase 4 (PAD4), recombinant human, wild type (from UniProt Q9UM07) R8E”, in the data set with heparin [1], the Kd stood at 15.7 nM, the koff was 4.2 × 10^-4, the kon (× 10^4 M^-1s^-1) came to 2.6 and the response was 659 RU. Further, in the data set with heparin [2], the Kd turned out to be 13.5 nM.
Take “peptidylarginine deiminase 4 (PAD4), recombinant human, wild type (from UniProt Q9UM07) R8E; Y435A”: in the data set with heparin [1], the Kd was determined as 15.5 nM, the koff is 4.5 × 10^-4, the kon (× 10^4 M^-1s^-1) is 3 and the response was determined as 802 RU.
Take “peptidylarginine deiminase 4 (PAD4), recombinant human, wild type (from UniProt Q9UM07) R123S; K126S; K128S”: in the data set with heparin [1], the Kd came to 14.4 nM, the koff was 4.6 × 10^-4, the kon (× 10^4 M^-1s^-1) turned out to be 3 and the response is 328 RU. In addition, the other: peak elution time from heparin column with heparin [3] worked out at 29 min. Moreover, in the data set with heparin [2], the Kd was 6.2 nM.
As for “peptidylarginine deiminase 4 (PAD4), recombinant human, wild type (from UniProt Q9UM07) Y435A”, in the data set with heparin [1], the Kd stood at 16.6 nM, the koff was 4.5 × 10^-4, the kon (× 10^4 M^-1s^-1) was determined as 2.8 and the response amounted to 786 RU. Besides, the Kd with heparin [2] is 13.3 nM.

B1: PAD4^59/60/61/81/91 (K59S K60S K61S K81S K91S) (enzyme, human, UniProt Q9UM07 1-663, looked up)
chain: MAQGTLIRVTPEQPTHAVCVLGTLTQLDICSSAPEDCTSFSINASPGVVVDIAHGPPASSSSTGSSTWPLDPGVEVTLTMSVASGSTGDQSVQISYYGPKTPPVKALLYLTGVEISLCADITRTGKVKPTRAVKDQRTWTWGPCGQGAILLVNCDRDNLESSAMDCEDDEVLDSEDLQDMSLMTLSTKTPKDFFTNHTLVLHVARSEMDKVRVFQATRGKLSSKCSVVLGPKWPSHYLMVPGGKHNMDFYVEALAFPDTDFPGLITLTISLLDTSNLELPEAVVFQDSVVFRVAPWIMTPNTQPPQEVYACSIFENEDFLKSVTTLAMKAKCKLTICPEEENMDDQWMQDEMEIGYIQAPHKTLPVVFDSPRNRGLKEFPIKRVMGPDFGYVTRGPQTGGISGLDSFGNLEVSPPVTVRGKEYPLGRILFGDSCYPSNDSRQMHQALQDFLSAQQVQAPVKLYSDWLSVGHVDEFLSFVPAPDRKGFRLLLASPRSCYKLFQEQQNEGHGEALLFEGIKKKKQQKIKNILSNKTLREHNSFVERCIDWNRELLKRELGLAESDIIDIPQLFKLKEFSKAEAFFPNMVNMLVLGKHLGIPKPFGPVINGRCCLEEKVCSLLEPLGLQCTFINDFFTYHIRHGEVHCGTNVRRKPFSFKWWNMVP
notes: Full length human PAD4 (GenBank NM_012387) with K59S K60S K61S K81S K91S; source: E. coli BL21(DE3), purified (HisTrap FF, HiTrap Heparin HP, Superdex 200 SEC)
Take B1: the “stoichiometry N” value in data set [4] is no more than 4; in data set [5], 4.

B2: PAD4^123/126/128 (R123S K126S K128S) (enzyme, human, UniProt Q9UM07 1-663, looked up)
chain: B1 chain with S59K, S60K, S61K, S81K, S91K, R123S, K126S, K128S
notes: Full length human PAD4 (GenBank NM_012387) with R123S K126S K128S; source: E. coli BL21(DE3), purified (HisTrap FF, HiTrap Heparin HP, Superdex 200 SEC)
Consider B2, for which the binding result in data set [4] is recorded as “binds”.

B3: PAD4^126/128/131/134/137 (K126S K128S R131S K134S R137S) (enzyme, human, UniProt Q9UM07 1-663, looked up)
chain: B1 chain with S59K, S60K, S61K, S81K, S91K, K126S, K128S, R131S, K134S, R137S
notes: Full length human PAD4 (GenBank NM_012387) with K126S K128S R131S K134S R137S; source: E. coli BL21(DE3), purified (HisTrap FF, HiTrap Heparin HP, Superdex 200 SEC)
For B3, the figures for the “stoichiometry N” value in data set [4] and in data set [5] were no more than 4 and 4, respectively.
